Measured values as given in publication PMC9926490, “Structural Basis for Cyclosporin Isoform-Specific Inhibition of Cyclophilins from Toxoplasma gondii” (ACS Infectious Diseases, 2023).
Each block holds one substance with its values, some of them ahead of it.

Assays:
cyclosporin A (CsA) = assay: ITC
[1] = molecular target: human cyclophilin A (CypA) (human) (UniProt P62937)
[2] = tested on: C[C@H](NC(=O)CCC(=O)O)C(=O)N[C@@H](C)C(=O)N1CCC[C@H]1C(=O)N[C@@H](Cc1ccccc1)C(=O)Nc1ccc([N+](=O)[O-])cc1; assay: purified protein, by the assay type; type: biochemical, Toxoplasma gondii; details: other: substrate AAPF, 0 °C, pH 8.0
Method: A trans-isomer is formed by Cyp, which is selectively cleaved by chymotrypsin, producing 4-nitroaniline, a yellow-colored product that can be measured spectrophotometrically.
The assay was performed in 50 mM Hepes, pH 8, and 100 mM NaCl at 0 °C. […] Once the temperature reached 0 °C, chymotrypsin solution, dissolved in HCl 1 mM, was added at 1.8 mg mL^–1 to start the reaction.
Successively, Cyp was added in large excess to enhance the cis-to-trans isomerization. The cis population was estimated by the difference between the final and the initial absorbance.
For all of the experiments, the slope of the catalyzed reaction was corrected for the spontaneous thermal cis–trans isomerization in the presence of the only chymotrypsin.
All measurements were repeated as triplicate, and the error was calculated as the mean standard error of the three measurements. The error associated with the parameter kcat/Km was propagated in agreement with the following equation eq 1 [drawing 1]

[3] = tested on: C[C@H](NC(=O)CCC(=O)O)C(=O)N[C@@H](C)C(=O)N1CCC[C@H]1C(=O)N[C@@H](Cc1ccccc1)C(=O)Nc1ccc([N+](=O)[O-])cc1; assay: purified protein, by the assay type; details: other: substrate AAPF, 0 °C, pH 8.0

Chain of human cyclophilin A (CypA) (human) (P62937 whole entry): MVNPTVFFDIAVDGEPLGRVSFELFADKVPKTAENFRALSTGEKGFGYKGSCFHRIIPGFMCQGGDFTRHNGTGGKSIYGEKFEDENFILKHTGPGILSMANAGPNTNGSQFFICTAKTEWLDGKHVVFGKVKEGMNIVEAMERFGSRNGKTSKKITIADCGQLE

Substance: TgCyp18.4 (TgCyp289250), cyclophilin from Toxoplasma gondii (enzyme)
stoichiometry N (cyclosporin A (CsA)): 1

IC50 of CsA on PPIase activity (7 nM enzyme, AAPF substrate, chymotrypsin-coupled assay, 0-30 nM CsA) [1]: 1 nM
Substance: cyclosporin A (CsA) (peptide)

Substance: TgCyp23 (Toxoplasma gondii VEG)
Km [2]: 530 ± 97 µM | kcat [2]: 2010 ± 381 s⁻¹ | kcat/Km [2]: 3.8e+06 ± 200000 M⁻¹ s⁻¹

Substance: TgCyp23 (TgCyp285760), cyclophilin from Toxoplasma gondii (enzyme)
stoichiometry N (cyclosporin A (CsA)): 1

Substance: CypA (Homo sapiens)
Km [3]: 661 ± 93 µM | kcat [3]: 3290 s⁻¹ | kcat/Km [3]: 4.9e+06 M⁻¹ s⁻¹
